Results taken from IntAct's records for PubMed 23594738.

B1: Protein lin-28 homolog A (Mus musculus), Q8K3Y3 (parent)
chain: MGSVSNQQFAGGCAKAAEKAPEEAPPDAARAADEPQLLHGAGICKWFNVRMGFGFLSMTARAGVALDPPVDVFVHQSKLHMEGFRSLKEGEAVEFTFKKSAKGLESIRVTGPGGVFCIGSERRPKGKNMQKRRSKGDRCYNCGGLDHHAKECKLPPQPKKCHFCQSINHMVASCPLKAQQGPSSQGKPAYFREEEEEIHSPALLPEAQN
partner: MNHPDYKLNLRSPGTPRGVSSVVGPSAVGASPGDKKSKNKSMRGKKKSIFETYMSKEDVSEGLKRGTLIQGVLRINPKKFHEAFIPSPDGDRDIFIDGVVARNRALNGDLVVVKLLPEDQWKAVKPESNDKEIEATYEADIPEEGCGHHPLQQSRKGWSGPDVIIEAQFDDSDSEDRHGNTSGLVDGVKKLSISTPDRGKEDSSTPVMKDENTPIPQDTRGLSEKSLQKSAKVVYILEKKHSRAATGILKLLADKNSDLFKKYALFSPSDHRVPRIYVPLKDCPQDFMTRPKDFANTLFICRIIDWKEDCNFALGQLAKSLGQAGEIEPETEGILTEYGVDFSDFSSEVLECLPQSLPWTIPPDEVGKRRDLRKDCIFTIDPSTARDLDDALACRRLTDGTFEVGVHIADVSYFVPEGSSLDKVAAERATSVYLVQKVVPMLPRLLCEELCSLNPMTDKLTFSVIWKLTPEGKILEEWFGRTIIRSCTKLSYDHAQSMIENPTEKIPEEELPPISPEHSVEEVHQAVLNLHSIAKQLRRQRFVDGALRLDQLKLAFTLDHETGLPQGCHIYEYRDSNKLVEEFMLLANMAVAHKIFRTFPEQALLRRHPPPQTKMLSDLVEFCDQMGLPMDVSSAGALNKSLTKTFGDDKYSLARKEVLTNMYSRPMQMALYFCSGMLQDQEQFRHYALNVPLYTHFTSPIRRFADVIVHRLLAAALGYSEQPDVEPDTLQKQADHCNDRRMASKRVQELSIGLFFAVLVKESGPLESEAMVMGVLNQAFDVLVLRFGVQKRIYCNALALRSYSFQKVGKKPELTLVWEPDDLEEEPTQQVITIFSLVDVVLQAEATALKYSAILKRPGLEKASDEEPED

Variants of: B1
Conditions: with di3l2_mouse Dis3l2, Q8CI75

effect of a mutation on the interaction	Variant
decreasing interaction strength	W46A
